The record followed here is publication PMC12137140, “The fast-evolving FIKK kinase family of Plasmodium falciparum can be inhibited by a single compound” (Nature Microbiology, 2025).

In assay [1] the target is T1, Bio-His-FIKK13 (Plasmodium falciparum 3D7, biotin (site not stated)).
T1 construct: also called His-bio-FIKK13; PfFIKK13
As to the kind of experiment: SPR; single-cycle kinetics, Biacore S200, Biotin CAPture kit; Bio-His-FIKK13 immobilised (about 1,400 RU), peptides as analytes; 50 mM Tris pH 7.5, 250 mM NaCl, 2 mM DTT, 10 mM MgCl2, 1.5 µM ADP, 0.02% Tween, 0.1% DMSO; 25 °C; 100 s contact time. The note with it: both partners purified.

Assay [2] addresses T2, Bio-His-FIKK13 (P. falciparum, biotin (site not stated)).
T2 construct: also called His-bio-FIKK13; biotinylated FIKK13
Nature of the assay: SPR; Bio-His-FIKK13 immobilised (Biotin CAPture kit, about 1,400 RU), Biacore S200, single-cycle kinetics, 100 s contact time, 25 °C, 50 mM Tris pH 7.5, 250 mM NaCl, 2 mM DTT, 10 mM MgCl2, 1.5 µM ADP, 0.02% Tween, 0.1% DMSO. The note with it: both partners purified. A general note: SPR reads the build-up and loss of mass on a sensor chip optically.

B1: FIKK13_4_S7AY10A (peptide)
chain: YPLRFLAVKAHCG
modifications: D-tyrosine at position 1; cyclised via a thioether bond between the N-terminus and the cysteine side chain; C-terminal amide
Broadly, the Kd is the concentration at which binding is half-saturated. The low end stands for tighter binding, the high end for weaker binding. For the molecule B1, the Kd with Bio-His-FIKK13 [1] is greater than 10000 nM.

B2: FIKK13_4 (peptide)
chain: YPLRFLSKYHCG
modifications: D-tyrosine at the N-terminus; cyclised via a thioether bond between the N-terminus and the cysteine side chain; C-terminal amide
Take B2: binding in the assay with Bio-His-FIKK13 [2] was put at a Kd of 17 nM.
